Test results published in patent US20210061922A1 (published 2021).

Target: CD16a (UniProt P08637 17-208)
Assay: SPR

Sequence of CD16a (P08637 17-208): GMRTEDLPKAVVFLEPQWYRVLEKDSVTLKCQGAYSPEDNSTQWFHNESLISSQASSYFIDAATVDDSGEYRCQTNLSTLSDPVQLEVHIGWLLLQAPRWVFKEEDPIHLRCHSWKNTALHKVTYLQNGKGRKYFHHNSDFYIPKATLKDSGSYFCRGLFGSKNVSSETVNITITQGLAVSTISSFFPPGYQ

B1: Anti-CD16 nanobody (VHH)
VHH: EVQLTESGGEDVQAGGSLRLSCSASGLTFSSYNMGWFRRAPGKEREFVASITWSGRDTFYADSVKGRFTISRDNAKNTVYLQMSSLKPEDTATYYCAANPWPVAAPRSGTYWGEGTQVTV
Question: Which Kd does the source give for B1 here?
Answer: 2.6 nM
